According to patent publication US20240132548A1 (Janssen / Centocor, published 2024):
Positions count from the first letter of the chain named.

Assays:
Experiment in all cases: BLI (Octet), biotinylated mAb on streptavidin sensors, culture supernatant
[1] = target: T1, RSV181180 (I152M + K226M + D486N + S215P + P101Q) (respiratory syncytial virus, subgroup B …, UniProt O36634 26-109; P13843 137-540)
T1 chain 1: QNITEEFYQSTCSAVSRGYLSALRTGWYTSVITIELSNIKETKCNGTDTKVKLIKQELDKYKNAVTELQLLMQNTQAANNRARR
T1 chain 2: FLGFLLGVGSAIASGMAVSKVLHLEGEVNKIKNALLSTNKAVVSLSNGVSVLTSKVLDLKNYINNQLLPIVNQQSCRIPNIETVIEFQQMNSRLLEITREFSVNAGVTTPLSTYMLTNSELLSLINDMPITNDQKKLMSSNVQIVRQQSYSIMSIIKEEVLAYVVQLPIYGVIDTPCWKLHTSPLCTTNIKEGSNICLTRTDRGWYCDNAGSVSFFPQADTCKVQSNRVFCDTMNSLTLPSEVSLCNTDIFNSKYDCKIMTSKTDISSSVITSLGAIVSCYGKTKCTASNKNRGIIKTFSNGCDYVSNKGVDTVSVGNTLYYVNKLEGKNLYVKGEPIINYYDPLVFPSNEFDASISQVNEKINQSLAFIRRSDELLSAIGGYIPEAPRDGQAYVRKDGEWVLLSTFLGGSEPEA
Protocol: (§1) Quantitative Octet (BioLayer Interferometry) was used for measuring protein concentration in the supernatants at day of harvest and after 7 or 30 days storage at 4° C. CR9501 (an antibody specifically recognizing pre-fusion RSV F protein, which comprises the variable regions of the antibodies 58C5 as described in WO2012/006596) and CR9506 (recognizing pre-fusion and post-fusion RSV F protein and comprising a heavy chain variable region comprising SEQ ID NO: 21, and a light chain variable region comprising SEQ ID NO: 22) were biotinylated by standard protocols and immobilized on Streptavidin biosensors (ForteBio, Portsmouth, UK).
(§2) Afterwards, the coated biosensors were blocked in mock cell culture supernatant. A quantitative experiment was performed as follows: temperature 30° C., shaking speed 1000 rpm, time of the assay 300 sec. The concentration of the protein was calculated using a standard curve. The standard curve was prepared for each coated antibody CR9501 and CR9506 using the pre-fusion RSV FA protein (SEQ ID NO: 19; described previously in WO17174568) diluted in mock medium. […] The data analysis was done using the ForteBio Data Analysis 10.0.1.6 software (ForteBio).

[2] = target: T2, RSV180915 (I152M + K226M + D486N + S215P) (respiratory syncytial virus, subgroup B …, UniProt O36634 26-109; P13843 137-540)
T2 chain 1: T1 chain 1 with Q76P
T2 chain 2: T1 chain 2
Protocol: as §1, §2

[3] = target: T3, RSV190417 (tag-free; I152M + K226M + D486N + S215P + L203I + P101Q + D489Y) (respiratory syncytial virus, subgroup B …, UniProt O36634 26-109; P13843 137-540)
T3 construct: Measured in culture supernatant, furin co-transfected
T3 chain 1: T1 chain 1
T3 chain 2: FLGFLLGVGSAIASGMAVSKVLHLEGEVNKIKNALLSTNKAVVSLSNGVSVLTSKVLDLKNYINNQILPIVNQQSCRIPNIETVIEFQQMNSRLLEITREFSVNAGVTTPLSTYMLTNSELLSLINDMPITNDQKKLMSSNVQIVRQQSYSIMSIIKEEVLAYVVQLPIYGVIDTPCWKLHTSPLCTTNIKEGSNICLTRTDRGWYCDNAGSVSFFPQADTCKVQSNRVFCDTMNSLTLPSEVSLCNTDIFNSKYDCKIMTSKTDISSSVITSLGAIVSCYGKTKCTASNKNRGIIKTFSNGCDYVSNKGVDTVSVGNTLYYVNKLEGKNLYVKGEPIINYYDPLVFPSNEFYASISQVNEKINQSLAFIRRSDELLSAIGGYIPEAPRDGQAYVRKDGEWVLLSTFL
Protocol: as §1, §2

[4] = target: T4, RSV181179 (I152M + K226M + D486N) (respiratory syncytial virus, subgroup B …, UniProt O36634 26-109; P13843 137-540)
T4 construct: Measured in crude culture supernatant, no furin co-transfection
T4 chain 1: T1 chain 1 with Q76P
T4 chain 2: T1 chain 2 with P79S
Protocol: as §1, §2

[5] = target: T5, RSV180907 (tag-free, RSV FB signal peptide) (respiratory syncytial virus, subgroup B …, UniProt O36634 26-109; P13843 137-540)
T5 construct: Same mature protein as RSV180913, expressed with the RSV B signal peptide; measured in culture supernatant, furin co-transfected
T5 chain 1: T1 chain 1
T5 chain 2: T3 chain 2 with Y353D
Protocol: as §1, §2

Measured: binding result

B1: CR9506 (antibody, human IgG1, kappa, V domains shown)
VH: EVQLVQSGAEVKKPGSSVKVSCKASGGTFSRSLITWVRQAPGQGLEWMGEISLVFGSAKNAQKFQGRVTITADESTSTAHMEMISLKHEDTAVYYCAAHQYGSGTHNNFWDESELRFDLWGQGTLVTVSS
VL: DIVMTQSPSSLSASVGDRVTIACRASQSIGTYLNWYQQKPGKAPKLLIYAASSLQSGVPSRFSGSGSGTHFTLAISSLQAEDFATYSCQQSYTIPYTFGQGTKLEIKR
notes: Biotinylated for Octet; coated and also used HRP-labelled as detection antibody in the ELISA
binds: all assays above
